The values below come from the supplement of paper PMC10724198.

± gives the standard deviation of the averaged measurements.
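Further: PSI is a weighted mean of sequencing reads over stability bins, variants kept only with over 10 reads, mCherry proximal and sfGFP distal, peptide attached via GGGS linker.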

This data set has as its system Saccharomyces cerevisiae. Put plainly: protein stability index of tFT-peptide fusion (C-terminal peptide) (PSI (0-1 scale)); higher = more stable (slower turnover). The settings on record: genetic background: wild type; temperature: 30 C. On the procedure: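 Multiplexed protein stability (MPS) profiling in S. cerevisiae. Random 12-aa peptides (tFT-X12 library) are fused to the C-terminus of a sfGFP-mCherry tandem fluorescent timer, after mCherry and a GGGS linker. Cells are FACS-sorted into 8 mCherry/sfGFP bins and deep-sequenced. The protein stability index (PSI) is the read-weighted bin average, scaled from 0 (unstable) to 1 (stable). Only peptides with >10 reads are reported; cells were grown at 30 °C in SC-His with glucose.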
In turn, GIYFARRVVDFG displayed a protein stability index of 0.65 ± 0.011.
Regarding GKDSSTASNRYT, the protein stability index stood at 0.688 ± 0.027.
GKEIHREIIVTV came in with a protein stability index of 0.618 ± 0.014.
On to GKKEGREAGDRG, for which the protein stability index stood at 0.691 ± 0.092.
The sequence GKKKKRIDTKYK gave a protein stability index of 0.713 ± 0.15.
GKKRTGRGESAK showed a protein stability index of 0.693 ± 0.062.
Turning to GKLQFAEYYNGI, the protein stability index worked out at 0.66 ± 0.0081.
In turn, GKNKYIYKKKRH registered a protein stability index of 0.792 ± 0.072.
In turn, GKRKREEDEEKK displayed a protein stability index of 0.686 ± 0.097.
For the sequence GKRRTIQPGQKM, the protein stability index amounted to 0.698 ± 0.032.
Next, GKSRRQGCDPRR: 0.659 ± 0.035; GKTRLRAKLTYN: 0.62 ± 0.08.
GLAASAFAVEEV returned a protein stability index of 0.711 ± 0.099.
The sequence GLALSPFPTLSL showed a protein stability index of 0.64677 ± 0.00031.
Sequence GLARPFVGFPHL gave a protein stability index of 0.7352 ± 0.0028.
In the case of GLCGFLLIETLL it was 0.64 ± 0.0085; in that of GLDSGVAGRRGV, 0.662 ± 0.0087; in that of GLEFTAFRLRFL, 0.667 ± 0.068.
In the case of GLERAVGWAVCG it was 0.622 ± 0.015; in that of GLERGRLGSGCG, 0.652 ± 0.0075.
Next, GLFRESVLGSVW: 0.708 ± 0.013; GLFSGRCLCGGG: 0.688 ± 0.025; GLFSRGKLIALS: 0.571 ± 0.099.
For the sequence GLGATSGGLRCG, the protein stability index worked out at 0.654 ± 0.014.
Sequence GLGAWRGAGRVG had a protein stability index of 0.649 ± 0.053.
Turning to GLGGAWACGGGR, the protein stability index is 0.719 ± 0.11.
In turn, GLGKWGGGGDER had a protein stability index of 0.723 ± 0.012.
In the case of GLGLGGRGMRVV it was 0.687 ± 0.018; in that of GLGQGVGGPWAV, 0.678 ± 0.041; in that of GLGQHPSLMSPP, 0.706 ± 0.028.
With GLIGLVHFWRGT, the protein stability index was 0.655 ± 0.035.
Next, GLKKRTIILSVK: 0.532 ± 0.0056; GLPFRYASYLFS: 0.704 ± 0.031; GLPLPTPLLPSP: 0.723 ± 0.01.
In the case of GLPWRRVGGGSG it was 0.699 ± 0.048; in that of GLRENIFTDKKN, 0.728 ± 0.06.
In the case of GLRHCLLHRTCQ it was 0.599 ± 0.0079; in that of GLRLFWFRRVRA, 0.537 ± 0.012.
Consider GLRSVQISHIRQ, for which the protein stability index was 0.694 ± 0.012.
As to GLRYGLALARPF, the protein stability index turned out to be 0.65 ± 0.034.
For GLSFITAGGLVF, the protein stability index was 0.688 ± 0.052.
Next, GLSLSLLSSLFV: 0.71 ± 0.02; GLVDVYWVCIIV: 0.6069 ± 0.0046; GLVLILRLFSRG: 0.494 ± 0.056.
Regarding GLWSWFLCYEFY, the protein stability index amounted to 0.657 ± 0.02.
Next, GLYDGSRLVKLE: 0.736 ± 0.039; GMFVCGVGVVGG: 0.704 ± 0.19; GMRGGGRAQDAR: 0.6609 ± 0.002.
In the case of GMRRGGGGCRGW it was 0.716 ± 0.033; in that of GMSRVSDRRWGS, 0.681 ± 0.013; in that of GMWVGGRGVVGV, 0.627 ± 0.0076.
In the case of GNCGLLSLYTLF it was 0.503 ± 0.023.
Sequence GNCPGYSELGRF yielded a protein stability index of 0.6941 ± 0.0044.
GNDICLVGARVV: the protein stability index was 0.6696 ± 0.0059.
In the case of GNFYFSGSGFFI it was 0.709 ± 0.031.
Next, GNGVNLEYDKRK: 0.721 ± 0.059; GNKKEKYNRTSS: 0.683 ± 0.0078.
In the case of GNLTPHSERLPP it was 0.658 ± 0.0084; in that of GNLVKTLERDKP, 0.736 ± 0.034; in that of GNNLCILNERFP, 0.763 ± 0.019.
The sequence GPCRVSLSFFFF had a protein stability index of 0.577 ± 0.06.
For the sequence GPFHSGSASRSA, the protein stability index worked out at 0.653 ± 0.047.
Regarding GPGAVTALGYGR, the protein stability index was 0.668 ± 0.015.
In the case of GPGLSPPYPSPA it was 0.704 ± 0.029.
